From paper PMC4471680

Biological target: myeloperoxidase (human (endogenous in neutrophils))
Experiment: SEC; unactivated azurophilic granules permeabilized with 0.1% NP-40, Superdex 200 GL, 20 mM HEPES pH 7.4, 100 mM NaCl, 0.5 U/ml heparin; fractions probed for NE and MPO; proteins of the complex detected by mass spectrometry

Sequence of myeloperoxidase (human (endogenous in neutrophils)) (P05164 165-745): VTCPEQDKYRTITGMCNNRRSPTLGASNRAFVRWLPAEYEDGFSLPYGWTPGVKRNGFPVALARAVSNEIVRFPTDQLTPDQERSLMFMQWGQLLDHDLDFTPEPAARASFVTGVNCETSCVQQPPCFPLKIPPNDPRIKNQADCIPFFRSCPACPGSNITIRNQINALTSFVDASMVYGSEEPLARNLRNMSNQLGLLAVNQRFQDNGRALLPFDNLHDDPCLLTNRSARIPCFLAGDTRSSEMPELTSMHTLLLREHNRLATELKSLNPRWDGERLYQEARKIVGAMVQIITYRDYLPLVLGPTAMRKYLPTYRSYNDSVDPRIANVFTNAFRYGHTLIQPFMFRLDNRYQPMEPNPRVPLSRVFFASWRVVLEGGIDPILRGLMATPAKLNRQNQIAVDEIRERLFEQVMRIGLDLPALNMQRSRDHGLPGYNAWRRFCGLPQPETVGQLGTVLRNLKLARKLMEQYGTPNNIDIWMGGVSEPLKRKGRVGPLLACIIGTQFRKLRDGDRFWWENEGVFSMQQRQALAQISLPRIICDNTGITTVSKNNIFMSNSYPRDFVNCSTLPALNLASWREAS

- stoichiometry N: 2 NE per MPO
Substance: neutrophil elastase (from UniProt P08246 30-267) (enzyme)
